From patent publication US20120082667A1 (IMMUNAS PHARMA, published 2012) come the findings set out here.

One experiment has as its target T1, synthesized A beta1-42 (UniProt P05067 672-713).
T1 construct: domain: A beta1-42; spotted in the dot blot as the second of the two types of oligomers; also called A beta42 oligomer
Nature of the experiment: dot blot: peptide spotted on nitrocellulose (0.1 micro g/dot), hybridoma culture supernatant, HRP anti-mouse IgG, ECL. How it is done: Dot blot analysis was carried out for hybridomas that gave positive result for primary screening. […] The membrane was blocked with Tris Buffer containing 5% low-fat milk and 0.05% Tween-20, and reacted with hybridoma culture supernatants and detected with chemiluminescence kit (ECL) after reacting with HRP-conjugated anti-mouse IgG antibody.

Experiment [1] deals with T2, A beta oligomer prepared from synthetic A beta1-40 (HCl form), 0.1 mg/ml in PBS, incubated at 37 degrees C … (UniProt P05067 672-711).
T2 construct: domain: A beta1-40; non-fibrous assembly of A beta1-40; also called A beta1-40 oligomer; A beta40 oligomer
Nature of the experiment: SPR, Biacore 3000, A beta1-40 oligomer on CM5 chip, antibody as analyte at five concentrations. The procedure: The analysis was carried out by Surface Plasmon Resonance (SPR) using Biacore 3000 (GE Healthcare Sciences).
(In general: SPR reads the build-up and loss of mass on a sensor chip optically.)

Experiment [2] deals with T2, A beta oligomer prepared from synthetic …. Nature of the experiment: competitive ELISA: antibody pre-incubated with soluble A beta1-40 oligomer (inhibitor, varied), then binding to immobilised A beta1-40 oligomer read as OD450. (In an ELISA, binding on a coated surface is turned into a signal by an enzyme label.)
Experiment [3] has as its target T3, A beta monomer prepared from synthetic A beta1-40 (TFA form), 0.1 mg/ml in PBS (UniProt P05067 672-711).
T3 construct: domain: A beta1-40; also called A beta1-40 monomer; A beta40 monomer
Nature of the experiment: competitive ELISA: antibody pre-incubated with soluble A beta1-40 monomer (inhibitor, varied), then binding to immobilised A beta1-40 oligomer read as OD450.

B1: AL-206 antibody (antibody, IgG2b, V domains shown)
VH: DVQLQESGPGLVKPSQSLSLACTVTGYSITSDYAWNWIRQFPGNKLEWLGYISYSGTTRYNPSLKSRISITRDTSKNQFFLQLNSVTTEDTATYYCAIYGSSYYWYFDVWGAGTTVTVSS
VL: QIVLTQSPAIMSASLGERVTMTCTASSSVSSSYLHWYQQKPGSSPKLWIYSTSNLASGVPARFSGSGSGTSYSLTISSMEAEDAATYYCHQYHRSPPTFGAGTKLELK
Consider B1, for which the binding result in the experiment with synthesized A beta1-42 is “binds”.

B2: AL-207 antibody (antibody, IgG2b, V domains shown)
VH: QVTLKESGPGILKPSQTLSLTCSFSGFSLSTSGMGVGWIRQPSGKGLEWLAHIWWDDDEYYNPSLKSQLTISKDTTRNQVFLKITSVDTADTATYYCARRAIHYYGYDAMDYWGQGTSVTVSS
VL: QIVLTQSPAIMSASLGERVTMTCTASSSVSSSYLHWYQQKPGSSPKLWIYSTSNLASGVPARFSGSGSGTSYSLTISSMEAEDAATYYCHQYHRSPPTFGAGTKLELK
With B2, the binding result with synthesized A beta1-42 is reported as “binds”.

B3: AL-208 antibody (antibody, IgG2b, V domains shown)
VH: QVQLQQPGAELVKPGASVKLSCKASGYTFTSYWMHWVKQRPGQGLEWIGEINPSNGRTNYNEKFKSKATLTVDKSSSTAYMQLSSLTSEDSAVYYCARQGYRHGVFAYWGQGTLVTVSA
VL: QIVLTQSPAIMSASLGERVTMTCTASSSVSSSYLHWYQQKPGSSPKLWIYSTSNLASGVPARFSGSGSGTSYSLTISSMEAEDAATYYCHQYHRSPPTFGAGTKLELK
Regarding B3, the binding result with synthesized A beta1-42 is recorded as “binds”.

B4: AL-224 antibody (antibody, IgG2a, V domains shown)
VH: DVQLVESGGGLVQPGGSRKLSCAASGFTFSSFGMHWVRQAPEKGLEWVAYISSGSSTIYYADTVKGRFTISRDNPKNTLFLQMTSLRSEDTAMYYCARYGNYAMDYWGQGTSVTVSS
VL: DVLMTQTPLSLPVSLGDQASISCRSSQSIVHSNGNTYLEWYLQKPGQSPKLLIYKVSNRFSGVPDRFSGSGSGTDFTLKIGRVEAEDLGVYYCFQGSHVPPTFGGGTELEIK
Usually Kd stands for a measure of binding affinity in units of concentration. High values mean a looser complex, low ones a tighter complex. The term koff denotes a measure of how fast the partners let go of each other. Read a high koff as fast dissociation. A word on the kon: it is the rate constant with which the complex forms. High values mean fast association, low ones slow association. In experiment [1], B4 showed a Kd of 544 nM, a koff of 0.155 s⁻¹ and a kon of 285000 M⁻¹ s⁻¹.

B5: AL-211 antibody (antibody, IgG2b, V domains shown)
VH: QVTLKESGPGILKPSQTLSLTCSFSGFSLSTSGMGVGWIRQPSGKGLEWLAHIWWDDDKYYNPSLKSQLTISKDTSRNQVFLKITSVDTADTATYYCARRSLSRDYFDYWGQGTTLTVSS
VL: DVVMTQTPLSLPVSLGDQASISCRSSQSLVHSNGNTYLHWYLQKPGQSPKLLIYKVSNRFSGVPDRFSGSGSGTDFTLKISRVEAEDLGVYFCSQSTHVPLTFGAGTKLELK
On to B5, for which, in the experiment with synthesized A beta1-42, the binding result is “binds”.

B6: AL-228 antibody (antibody, IgG2a, V domains shown)
VH: QVTLKESGPGILKPSQTLSLTCSFSGFSLSTSGMGVGWIRQPSGKGLEWLAHIWWDDDKYYNPSLKSRLTISKDTSRNQVFLKITSVDTADTATYYCTRRALLRLQGDYFDYWGQGTTLTVSS
VL: DVLMTQTPLSLPVSLGDQASISCRSSQSIVHSNGNTYLEWYLQKPGQSPKLLIYKVSNRFSGVPDRFSGSGSGTDFTLKISRVEAEDLGVYYCFQGSHVPLTFGAGTKLELK
Take B6: the binding result with synthesized A beta1-42 is reported as “binds”.

B7: AL-216 antibody (antibody, IgG2b, V domains shown)
VH: QVQLQQPGAELVKPGASVKLSCKASGYTFTSYWMHWVKQRPGQGLEWIGEINPSNGRTNYNEKFKSKATLTVDKSSSTAYMQLSSLTSEDSAVYYCAREHYYGYGAYWGQGTLVTVSA
VL: DVLMTQTPLSLPVSLGDQASISCRSSQSIVHSNGNTYLEWYLQKPGQSPKLLIYKVSNRFSGVPDRFSGSGSGTDFTLKISRVEAEDLGVYYCFQGSHVPLTFGAGTKLELK
For the molecule B7, the binding result with synthesized A beta1-42 is recorded as “binds”.

B8: AL-222 antibody (antibody, IgG2b, V domains shown)
VH: QVTLKESGPGILKPSQTLSLTCSFSGFSLSTAGMGVGWIRQPSGKGLEWLAHIWWDDDKYYNPSLKSQLTISKDTSRNQVFLKITSVDTADTATYYCARRGLYYGNYDAMDYWGQGTSVTVSS
VL: DVLMTQTPLSLPVSLGDQASISCRSSQSIVHSNGNTYLEWYLQKPGQSPKLLIYKVSTRFSGVPDRFSGSGSGTDFTLKISRVEAEDLGVYYCFQGSRVPLTFGAGTKLELK
Regarding B8, the binding result (in experiment [2]; with synthesized A beta1-42; in experiment [3]) was “binds” throughout.

B9: AL-227 antibody (antibody, IgG2a, V domains shown)
VH: not shown
VL: DVVMTQTPLSLPVSLGDQASISCRSSQSLVHSNGNTYLHWYLQKPGQSPKLLIYKVSNRFSGVPDRFSGSGSGTDFTLKISRVEAEDLGVYFCSQSTHVPLTFGAGTKLELK
As to B9, in the experiment with synthesized A beta1-42, the binding result was “binds”.

B10: AL-226 antibody (antibody, IgG2b, V domains shown)
VH: not shown
VL: DVVMTQTPLSLPVSLGDQASISCRSSQSLVHSNGNTYLHWYLQKPGQSPKLLIYKVSNRFSGVPDRFSGSGSGTDFTLKISRVEAEDLGVYFCSQSTHVPLTFGAGTKLELK
Turning to B10, the binding result in the experiment with synthesized A beta1-42 was “binds”.

B11: AL-223 antibody (antibody, IgG2a, V domains shown)
VH: QVTLKESGPGILKPSQTLSLTCSFSGFSLSTSGMGVGWIRQPSGKGLEWLAHIWWDDDKYYNPSLKSQLTISKDTSRNQVFLKITSVDTADTATYYCARRALITTRDYFDYWGQGTTLTVSS
VL: DVLMTQTPLSLPVSLGDQASISCRSSQSIVHSNGNTYLEWYLQKPGQSPKLLIYKVSNRFSGVPDRFSGSGSGTDFTLKISRVEAEDLGVYYCFQGSHVPLTFGAGTKLELK
B11: the binding result (in experiment [2]; in the experiment with synthesized A beta1-42; in experiment [3]) was “binds” throughout.

B12: AL-217 antibody (antibody, IgG1, V domains shown)
VH: QVTLKESGPGILQPSQTLSLTCSFSGFSLSTSGMGVSWIRQPSGKGLEWLAHIYWDDDKRYNPSLKSRLTISKDTSSNQVFLKITSVDTADTATYYCARRGPSYYRYRDYFDYWGQGTTLTVSS
VL: DVLMTQTPLSLPVSLGDQASISCRSSQSIVHSNGNTYLEWYLQKPGQSPKLLIYKVSNRFSGVPDRFSGSGSGTDFTLKISRVEAEDLGVYYCFQGSHVPLTFGAGTKLELK
Turning to B12, in experiment [1], the Kd is 6.44 nM, the koff came to 0.00123 s⁻¹ and the kon amounted to 191000 M⁻¹ s⁻¹.

B13: AL-213 antibody (antibody, IgG2b, V domains shown)
VH: QVQLKQSGPGLVQPSQSLSITCTVSGFSLTSYGVHWVRQSPGKGLEWLGVIWRGGSTDYNAAFMSRLSITKDNSKSQVFFKMNSLQADDTAIYYCANNRYERGGYYAMDYWGQGTSVTVSS
VL: DVLMTQTPLSLPVSLGDQASISCRSSQSIVHSNGNTYLEWYLHKPGQSPKLLIYKVSNRFSGVPDRFSGSGSGTDFTLKISRVEAEDLGVYYCFQGSHVPLTFGAGTKLELK
Consider B13, for which the binding result in the experiment with synthesized A beta1-42 is “binds”.

B14: AL-212 antibody (antibody, IgG2b, V domains shown)
VH: QVTLKESGPGILKPSQTLSLTCSFSGFSLSTSGMGVGWIRQPSGKGLEWLAHIWWDDDKYYNPSLKSQLTISKDTSRNQVFLKITSVDTADTATYYCAPSTMITTFAYWGQGTLVTVSA
VL: DVVMTQTPLSLPVSLGDQASISCRSSQSLVHSNGNTYLHWYLQKPGQSPKLLIYKVSNRFSGVPDRFSGSGSGTDFTLKISRVEAEDLGVYFCSQSTHVPLTFGAGTKLELK
Consider B14, for which the binding result with synthesized A beta1-42 is recorded as “binds”.

B15: AL-220 antibody (antibody, IgG2b, V domains shown)
VH: QVQLQQPGAELVKPGASVKLSCKASGYTFTSYWMHWVKQRPGQGLEWIGEINPSNGRTNYNEKFKSKATLTVDKSSSTAYMQLSSLTSEDSAVYYCAREHYYGYGAYWGQGTLVTVSA
VL: DVLMTQTPLSLPVSLGDQASISCRSSQSIVHSNGNTYLEWYLQKPGQSPKLLIYKVSNRFSGVPDRFSGSGSGTDFTLKISRVEAEDLGVYYCFQGSHVPYTFGGGTKLEIK
Turning to B15, the binding result with synthesized A beta1-42 is listed as “binds”.

B16: AL-225 antibody (antibody, IgG2a, V domains shown)
VH: QVTLKESGPGILKPSQTLSLTCSFSGFSLSTSGMGVGWIRQPSGKGLEWLAHIWWDDDKYYNPSLKSQLTISKDTSRNQVFLKITSVDTADTATYYCARRGLIRQDYFDYWGQGTTLTVSS
VL: DVLMTQTPLSLPVSLGDQASISCRSSQSIVHSNGNTYLEWYLQKPGQSPKLLIYKVSNRFSGVPDRFSGSGSGTDFTLKISRVEAEDLGVYYCFQGSHVPLTFGAGTKLELK
In the case of B16, in experiment [1], the Kd is 126 nM, the koff is 0.0192 s⁻¹ and the kon was determined as 152000 M⁻¹ s⁻¹.

B17: AL-214 antibody (antibody, IgG2b, V domains shown)
VH: QVQLKQSGPGLVQPSQSLSITCTVSGFSLTSYGVHWVRQSPGKGLEWLGVIWRGGSTDYNAAFMSRLSITKDNSKSQVFFKMNSLQADDTAIYYCANNRYERGGYYAMDYWGQGTSVTVSS
VL: DVLMTQTPLSLPVSLGDQASISCRSSQSIVHSNGNTYLEWYLQKPGQSPKLLIYKVSNRFSGVPDRFSGSGSGTDFTLKISRVEAEDLGVYYCFQGSHVPLTFGAGTKLELK
With B17, the binding result with synthesized A beta1-42 is on record as “binds”.

B18: AL-202 antibody (antibody, IgG2a, V domains shown)
VH: EVQLVESGGDLVKPGGSLKLSCAASGFTFSSYGMSWVRQTPDKRLEWVATISSGGSYTYYPDSVKGRFTISRDNAKNTLYLQMSSLKSEDTAMYYCARPLYYRHGVFAYWGQGTLVTVSA
VL: DVQITQSPSYLAASPGETITINCRASKSISKYLAWYQEKPGKTNKLLIYSGSTLQSGIPSRFSGSGSGTDFTLTISSLEPEDFAMYYCQQHNEYPWTFGGGTKLEIK
As to B18, the binding result with synthesized A beta1-42 is recorded as “binds”.
